The target of this test is T1, proliferating cell nuclear antigen (PCNA), yeast (yeast, UniProt P15873 1-258).
T1 sequence (looked up): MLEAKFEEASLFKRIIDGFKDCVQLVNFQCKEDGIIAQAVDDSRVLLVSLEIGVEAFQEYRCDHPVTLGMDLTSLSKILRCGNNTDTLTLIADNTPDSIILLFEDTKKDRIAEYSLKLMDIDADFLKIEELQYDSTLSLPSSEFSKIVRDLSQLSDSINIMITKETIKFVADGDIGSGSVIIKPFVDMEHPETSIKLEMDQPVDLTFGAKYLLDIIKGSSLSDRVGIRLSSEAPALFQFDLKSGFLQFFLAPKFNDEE
Kind of test: pull-down.

B1: GST-PINIT (Siz1 aa 172-315 as a C-terminal fusion to GST), wild-type (domain or fragment, S. cerevisiae, UniProt Q04195 172-315, looked up)
chain: VPTIHFKESPFYKIQRLIPELVMNVEVTGGRGMCSAKFKLSKADYNLLSNPNSKHRLYLFSGMINPLGSRGNEPIQFPFPNELRCNNVQIKDNIRGFKSKPGTAKPADLTPHLKPYTQQNNVELIYAFTTKEYKLFGYIVEMIT
As to B1, the binding result is “binds”.

The values are drawn from paper PMC2771690 (Molecular cell, 2009).
